This note sets out measurements from US20040091953.

In data set [1] the target is fusion protein between subunit 9 of F0/F1-ATPase and DHFR.
In data set [2] the target is T1, hSIRT3-FLAG, full-length 44 kDa form.
T1 chain: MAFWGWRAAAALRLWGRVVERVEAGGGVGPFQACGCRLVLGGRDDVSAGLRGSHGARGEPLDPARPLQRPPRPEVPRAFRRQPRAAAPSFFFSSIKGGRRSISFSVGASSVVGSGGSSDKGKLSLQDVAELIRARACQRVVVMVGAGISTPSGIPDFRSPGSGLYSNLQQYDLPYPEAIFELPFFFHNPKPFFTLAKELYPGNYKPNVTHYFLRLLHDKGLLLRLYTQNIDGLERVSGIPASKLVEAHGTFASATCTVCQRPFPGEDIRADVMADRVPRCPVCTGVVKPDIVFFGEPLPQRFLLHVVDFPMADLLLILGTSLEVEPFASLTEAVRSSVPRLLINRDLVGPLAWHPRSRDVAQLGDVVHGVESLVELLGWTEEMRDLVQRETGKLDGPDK

For the next data set, the target named is T2, hSIRT3R99/100G-FLAG.
T2 chain: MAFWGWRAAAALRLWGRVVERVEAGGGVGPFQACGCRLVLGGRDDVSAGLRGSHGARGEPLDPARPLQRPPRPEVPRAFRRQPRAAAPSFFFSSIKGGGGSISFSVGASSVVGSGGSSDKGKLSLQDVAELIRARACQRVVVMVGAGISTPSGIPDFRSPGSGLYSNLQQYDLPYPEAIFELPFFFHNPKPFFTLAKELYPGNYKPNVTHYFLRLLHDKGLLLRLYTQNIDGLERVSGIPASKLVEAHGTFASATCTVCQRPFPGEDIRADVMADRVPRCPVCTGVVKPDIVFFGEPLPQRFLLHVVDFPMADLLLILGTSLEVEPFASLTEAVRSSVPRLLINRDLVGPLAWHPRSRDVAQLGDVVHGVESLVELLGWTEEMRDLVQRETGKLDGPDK

Data set [3] addresses other hSIRT3 mutants targeting arginine residues at positions 133, 135, 139 and 158.

B1: purified recombinant yeast MPP (protein)
chain 1: ARTDNFKLSSLANGLKVATSNTPGHFSALGLYIDAGSRFEGRNLKGCTHILDRLAFKSTEHVEGRAMAETLELLGGNYQCTSSRENLMYQASVFNQDVGKMLQLMSETVRFPKITEQELQEQKLSAEYEIDEVWMKPELVLPELLHTAAYSGETLGSPLICPRELIPSISKYYLLDYRNKFYTPENTVAAFVGVPHEKALELTEKYLGDWQSTHPPITKKVAQYTGGESCIPPAPVFGNLPELFHIQIGFEGLPIDHPDIYALATLQTLLGGGGSFSAGGPGKGMYSRLYTHVLNQYYFVENCVAFNHSYSDSGIFGISLSCIPQAAPQAVEVIAQQMYNTFANKDLRLTEDEVSRAKNQLKSSLLMNLESKLVELEDMGRQVLMHGRKIPVNEMISKIEDLKPDDISRVAEMIFTGNVNNAGNGKGRATVVMQGDRGSFGDVENVLKAYGLGNSSSSKNDSPKKKGWF
chain 2: SQIPGTRTSKLPNGLTIATEYIPNTSSATVGIFVDAGSRAENVKNNGTAHFLEHLAFKGTQNRSQQGIELEIENIGSHLNAYTSRENTVYYAKSLQEDIPKAVDILSDILTKSVLDNSAIERERDVIIRESEEVDKMYDEVVFDHLHEITYKDQPLGRTILGPIKNIKSITRTDLKDYITKNYKGDRMVLAGAGAVDHEKLVQYAQKYFGHVPKSESPVPLGSPRGPLPVFCRGERFIKENTLPTTHIAIALEGVSWSAPDYFVALATQAIVGNWDRAIGTGTNSPSPLAVAASQNGSLANSYMSFSTSYADSGLWGMYIVTDSNEHNVQLIVNEILKEWKRIKSGKISDAEVNRAKAQLKAALLLSLDGSTAIVEDIGRQVVTTGKRLSPEEVFEQVDKITKDDIIMWANYRLQNKPVSMVALGNTSTVPNVSYIEEKLNQ
As for B1, the “cleavage by MPP in vitro” value is “resulted in the appearance of digestion products similar to what has been previously reported” in data set [1], “led to its cleavage to a product of ˜28 KDa” in data set [2], “showed abrogation of cleavage by MPP in vitro” with hSIRT3R99/100G-FLAG and “other mutants were unaffected” in data set [3].
